In patent US20220340678A1 (MURAL ONCOLOGY, published 2022):
Blank lines part the entries; values can stand above or below the binder they belong to.

How the values were obtained:
mouse uPAR on cells [1] = biological target: T1, mouse uPAR on cells (mouse, UniProt P35456 24-298); experiment: flow cytometry on CT26 cells (express mouse uPAR), anti-His detection
T1 construct: whole, on cells; also called Ms-uPAR; mouse uPAR (CD87)
T1 sequence (looked up): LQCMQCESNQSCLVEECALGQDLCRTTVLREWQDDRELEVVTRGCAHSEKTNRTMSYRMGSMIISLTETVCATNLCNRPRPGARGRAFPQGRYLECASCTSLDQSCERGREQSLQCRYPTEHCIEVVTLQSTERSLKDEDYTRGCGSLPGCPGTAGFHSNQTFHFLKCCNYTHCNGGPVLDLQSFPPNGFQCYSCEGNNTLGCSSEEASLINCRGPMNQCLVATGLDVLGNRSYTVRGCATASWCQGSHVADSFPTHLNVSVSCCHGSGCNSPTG

mouse uPAR on cells [2] = biological target: T1, mouse uPAR on cells; experiment: flow cytometry on MC38 cells (express mouse uPAR), anti-His detection
[3] = biological target: T2, Recombinant mouse uPAR-Fc (R&D Systems, Cat. No. 531-PA-100) (mouse, UniProt P35456 24-297, limits assumed); experiment: SPR (Biacore), mouse uPAR-Fc captured on anti-human antibody chip
T2 construct: not shown: Fc of the bought fusion (captured with the human antibody capture kit); not described
T2 sequence (looked up): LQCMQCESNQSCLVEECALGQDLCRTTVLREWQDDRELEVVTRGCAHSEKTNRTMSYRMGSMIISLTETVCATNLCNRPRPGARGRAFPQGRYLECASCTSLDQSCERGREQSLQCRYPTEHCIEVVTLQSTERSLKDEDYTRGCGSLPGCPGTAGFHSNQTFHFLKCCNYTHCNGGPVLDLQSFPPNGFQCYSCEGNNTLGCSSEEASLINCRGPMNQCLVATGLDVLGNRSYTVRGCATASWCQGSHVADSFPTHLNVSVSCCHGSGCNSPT

[4] = biological target: IL-2/IL-15 receptor on primary mouse splenocytes (mouse); experiment: cell-based or functional assay
mouse uPAR on cells [5] = biological target: T1, mouse uPAR on cells; experiment: flow cytometry on 4T1 cells (express mouse uPAR), anti-His detection
mouse uPAR on cells [6] = biological target: T1, mouse uPAR on cells; experiment: flow cytometry on EMT6 cells (express mouse uPAR), anti-His detection
biotinylated human uPAR [7] = biological target: T3, biotinylated human uPAR (human, UniProt Q03405 23-303, limits assumed, biotinylated (site not stated)); experiment: BLI (Octet) competition on biotinylated human uPAR; competitor (first antibody): ATN-368 (ATN-658)
[8] = biological target: T4, histidine-tagged human uPAR (Sino#10925-H08H) (human, UniProt Q03405 23-303); experiment: BLI (Octet), uPAR on sensor, antibody in solution (avidity)
T4 construct: also called uPAR-His

biotinylated human uPAR [9] = biological target: T3, biotinylated human uPAR; experiment: BLI (Octet) competition on biotinylated human uPAR; competitor (first antibody): M5
[10] = biological target: T5, Human uPAR DIII domain HisAvi Tag (human, biotinylated (site not stated)); experiment: BLI (Octet), biotinylated domain on SA sensor, antibody 200 nM
T5 chain: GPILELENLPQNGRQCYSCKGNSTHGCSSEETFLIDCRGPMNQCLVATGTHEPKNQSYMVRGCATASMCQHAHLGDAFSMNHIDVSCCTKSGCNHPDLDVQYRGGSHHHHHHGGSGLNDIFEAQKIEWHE

[11] = biological target: Human uPAR DII-DIII domain HisAvi Tag (human, biotinylated (site not stated)); experiment: as above
[12] = biological target: T6, human uPAR expressed on HEK293 cells (human, UniProt Q03405 23-305); experiment: flow cytometry, HEK293 cells expressing human uPAR, 100 nM uPA present
T6 construct: whole, on cells; also called Hu-uPAR

[13] = biological target: T4, histidine-tagged human uPAR …; experiment: BLI (Octet), antibody on anti-mouse Fc sensor, uPAR in solution
biotinylated human uPAR [14] = biological target: T3, biotinylated human uPAR; experiment: BLI (Octet) competition on biotinylated human uPAR; competitor (first antibody): M1
biotinylated human uPAR [15] = biological target: T3, biotinylated human uPAR; experiment: BLI (Octet) on biotinylated human uPAR; row 'None': no first antibody
[16] = biological target: human 4-1BB on 4-1BB effector cells (human, UniProt Q07011 24-255); experiment: cell-based or functional assay
Sequence of human 4-1BB on 4-1BB effector cells (Q07011 24-255): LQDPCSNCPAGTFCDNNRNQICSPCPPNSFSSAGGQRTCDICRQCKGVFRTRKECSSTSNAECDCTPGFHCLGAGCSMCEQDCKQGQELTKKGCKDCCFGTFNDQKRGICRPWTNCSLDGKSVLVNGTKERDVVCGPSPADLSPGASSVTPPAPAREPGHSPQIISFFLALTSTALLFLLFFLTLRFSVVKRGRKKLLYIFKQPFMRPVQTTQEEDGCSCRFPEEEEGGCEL

[17] = biological target: T2, Recombinant mouse uPAR-Fc (R&D Systems, …); experiment: SPR (Biacore), mouse uPAR-Fc captured on chip; Table 32 prints 0.15
[18] = biological target: Recombinant human uPAR his (R&D Systems, 807-UK-100/CF) (human, UniProt Q03405 23-303, biotinylated (sites not given)); experiment: SPR (Biacore), biotinylated human uPAR his on streptavidin chip
[19] = biological target: T7, IL-2/IL-15 receptor on HH cells (human); experiment: cell-based or functional assay
T7 chain 1: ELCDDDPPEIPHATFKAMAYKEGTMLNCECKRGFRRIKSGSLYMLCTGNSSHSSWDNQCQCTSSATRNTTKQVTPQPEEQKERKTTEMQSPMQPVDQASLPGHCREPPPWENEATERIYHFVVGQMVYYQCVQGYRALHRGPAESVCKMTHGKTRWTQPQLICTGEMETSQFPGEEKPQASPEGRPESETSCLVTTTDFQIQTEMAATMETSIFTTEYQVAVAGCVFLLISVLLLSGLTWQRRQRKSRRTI
T7 chain 2: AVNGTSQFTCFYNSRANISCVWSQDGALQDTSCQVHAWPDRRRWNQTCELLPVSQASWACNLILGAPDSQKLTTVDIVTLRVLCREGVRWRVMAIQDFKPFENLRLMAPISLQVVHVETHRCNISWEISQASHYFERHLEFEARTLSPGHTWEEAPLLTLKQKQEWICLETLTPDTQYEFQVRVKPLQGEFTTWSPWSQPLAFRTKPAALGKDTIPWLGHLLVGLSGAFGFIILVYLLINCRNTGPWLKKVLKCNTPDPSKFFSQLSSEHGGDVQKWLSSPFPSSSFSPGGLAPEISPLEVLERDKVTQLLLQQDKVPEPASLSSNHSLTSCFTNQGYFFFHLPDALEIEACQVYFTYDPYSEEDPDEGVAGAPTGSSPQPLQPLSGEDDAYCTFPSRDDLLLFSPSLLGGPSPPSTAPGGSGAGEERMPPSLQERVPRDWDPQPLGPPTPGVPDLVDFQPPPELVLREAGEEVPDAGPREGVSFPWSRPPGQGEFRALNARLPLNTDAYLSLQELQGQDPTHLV
T7 chain 3: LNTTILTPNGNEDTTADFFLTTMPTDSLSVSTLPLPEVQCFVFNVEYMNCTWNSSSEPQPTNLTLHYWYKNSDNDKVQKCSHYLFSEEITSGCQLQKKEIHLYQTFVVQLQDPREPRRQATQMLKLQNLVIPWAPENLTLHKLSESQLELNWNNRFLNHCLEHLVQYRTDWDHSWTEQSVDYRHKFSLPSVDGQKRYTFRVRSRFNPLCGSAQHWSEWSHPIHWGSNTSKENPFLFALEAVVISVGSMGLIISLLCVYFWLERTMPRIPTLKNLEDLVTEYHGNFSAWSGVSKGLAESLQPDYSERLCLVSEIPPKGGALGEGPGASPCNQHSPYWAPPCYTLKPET

B2: M1 (antibody, V domains shown)
VH: EVQLQQSGAELVRPGASVKLSCTASGFNIKDEYINWVKQRPEQGLEWIGWIDPENGDTEYASKFQGKATITADTSSNTAYLQLSSLTSEDTAVYYCTGGNYVGWFPYWGQGTLVTVSA
VL: QIVLTQSPAIMSASPGEKVTMTCSASSSVSYMHWYQQKSGTSPKRWLYDTSKLASGVPARFSGSGSGTSYSLTISSMEAEDAATYYCQQWSSNPPYTFGGGTKLEIK
notes: Mouse hybridoma antibody; also called anti-uPAR antibody M1; parental M1
response in competition assay (biotinylated human uPAR [7]): -0.0232 | Kd [8]: < 1 pM | koff [8]: < 1e-07 s⁻¹ | kon [8]: 448000 M⁻¹ s⁻¹ | response in competition assay (biotinylated human uPAR [9]): 0.365 | binding result [10]: binds | binding result [11]: binds | EC50 [12]: 660 pM | Kd [13]: 511 pM | koff [13]: 0.00034 s⁻¹ | kon [13]: 664000 M⁻¹ s⁻¹ | response in competition assay (biotinylated human uPAR [14]): -0.0441 | response in competition assay (biotinylated human uPAR [15]): 0.305

B3: Linked human 4-1BBL Trimer: Human uPA-ATF (other)
chain: SNELHQVPSNCDCLNGGTCVSNKYFSNIHWCNCPKKFGGQHCEIDKSKTCYEGNGHFYRGKASTDTMGRPCLPWNSATVLQQTYHAHRSDALQLGLGKHNYCRNPDNRRRPWCYVQVGLKPLVQECMVHDCAGGSGGREGPELSPDDPAGLLDLRQGMFAQLVAQNVLLIDGPLSWYSDPGLAGVSLTGGLSYKEDTKELVVAKAGVYYVFFQLELRRVVAGEGSGSVSLALHLQPLRSAAGAAALALTVDLPPASSEARNSAFGFQGRLLHLSAGQRLGVHLHTEARARHAWQLTQGATVLGLFRVTPEIPAGLPSPRSEGSGREGPELSPDDPAGLLDLRQGMFAQLVAQNVLLIDGPLSWYSDPGLAGVSLTGGLSYKEDTKELVVAKAGVYYVFFQLELRRVVAGEGSGSVSLALHLQPLRSAAGAAALALTVDLPPASSEARNSAFGFQGRLLHLSAGQRLGVHLHTEARARHAWQLTQGATVLGLFRVTPEIPAGLPSPRSEGSGREGPELSPDDPAGLLDLRQGMFAQLVAQNVLLIDGPLSWYSDPGLAGVSLTGGLSYKEDTKELVVAKAGVYYVFFQLELRRVVAGEGSGSVSLALHLQPLRSAAGAAALALTVDLPPASSEARNSAFGFQGRLLHLSAGQRLGVHLHTEARARHAWQLTQGATVLGLFRVTPEIPAGLPSPRSE
EC50, luciferase 4-1BB Bioassay [16]: 100 pM | Emax (luciferase units), 4-1BB Bioassay [16]: 330000 luciferase units

B5: Human uPA-ATF:His6 (ligand)
chain: SNELHQVPSNCDCLNGGTCVSNKYFSNIHWCNCPKKFGGQHCEIDKSKTCYEGNGHFYRGKASTDTMGRPCLPWNSATVLQQTYHAHRSDALQLGLGKHNYCRNPDNRRRPWCYVQVGLKPLVQECMVHDCAHHHHHH
notes: also called 103
EC50 (mouse uPAR on cells [1]): 1100 pM | EC50 (mouse uPAR on cells [2]): 420 pM | Kd [18]: 240 pM | koff [18]: 0.00035 s⁻¹ | kon [18]: 1.5e+06 M⁻¹ s⁻¹ | EC50 (mouse uPAR on cells [5]): 220 pM

B6: Human cpIL-2:IL-2Ra:Human uPA-ATF (N22Y, W30R)-His6 (other)
chain: SKNFHLRPRDLISNINVIVLELKGSETTFMCEYADETATIVEFLNRWITFSQSIISTLTGGSSSTKKTQLQLEHLLLDLQMILNGINNYKNPKLTRMLTFKFYMPKKATELKHLQCLEEELKPLEEVLNLAQGSGGGSELCDDDPPEIPHATFKAMAYKEGTMLNCECKRGFRRIKSGSLYMLCTGNSSHSSWDNQCQCTSSATRNTTKQVTPQPEEQKERKTTEMQSPMQPVDQASLPGHCREPPPWENEATERIYHFVVGQMVYYQCVQGYRALHRGPAESVCKMTHGKTRWTQPQLICTGGGSGGSNELHQVPSNCDCLNGGTCVSYKYFSNIHRCNCPKKFGGQHCEIDKSKTCYEGNGHFYRGKASTDTMGRPCLPWNSATVLQQTYHAHRSDALQLGLGKHNYCRNPDNRRRPWCYVQVGLKPLVQECMVHDCAHHHHHH
notes: also called 110
EC50 (mouse uPAR on cells [1]): 1400 pM | Kd [3]: 120 pM | koff [3]: 0.00023 s⁻¹ | kon [3]: 1.9e+06 M⁻¹ s⁻¹ | pSTAT5 EC50, HH cells [19]: 1.6 nM | EC50 (mouse uPAR on cells [6]): 540 pM

Other lines, results leading:

EC50 (mouse uPAR on cells [1]): 1300 pM | EC50 (mouse uPAR on cells [2]): 710 pM | Kd [3]: 190 pM | koff [3]: 0.00026 s⁻¹ | kon [3]: 1.3e+06 M⁻¹ s⁻¹ | pSTAT5 EC50, mouse NK cells [4]: 20 nM | pSTAT5 EC50, mouse Tregs [4]: 17 nM | pSTAT5 EC50, mouse memory CD8 T cells [4]: 27 nM | EC50 (mouse uPAR on cells [5]): 1000 pM | EC50 (mouse uPAR on cells [6]): 410 pM
B1: Mouse cpIL-2:IL-2Ra:mouse uPA-ATF-His6 (other)
chain: SKSFQLEDAENFISNIRVTVVKLKGSDNTFECQFDDESATVVDFLRRWIAFCQSIISTSPQGGSSSTQQQQQHLEQLLMDLQELLSRMENYRNLKLPRMLTFKFYLPKQATELKDLQCLEDELGPLRHVLDLTQGSGGGSELCLYDPPEVPNATFKALSYKNGTILNCECKRGFRRLKELVYMRCLGNSWSSNCQCTSNSHDKSRKQVTAQLEHQKEQQTTTDMQKPTQSMHQENLTGHCREPPPWKHEDSKRIYHFVEGQSVHYECIPGYKALQRGPAISICKMKCGKTGWTQPQLTCVDGGSGGGSVLGAPDESNCGCQNGGVCVSYKYFSRIRRCSCPRKFQGEHCEIDASKTCYHGNGDSYRGKANTDTKGRPCLAWNAPAVLQKPYNAHRPDAISLGLGKHNYCRNPDNQKRPWCYVQIGLRQFVQECMVHDCHHHHHH
notes: also called 101

Kd [17]: 140 pM | Kd [3]: 150 pM | koff [3]: 0.00032 s⁻¹ | kon [3]: 2.2e+06 M⁻¹ s⁻¹
B4: Mouse uPA-ATF His6 (ligand)
chain: GSVLGAPDESNCGCQNGGVCVSYKYFSRIRRCSCPRKFQGEHCEIDASKTCYHGNGDSYRGKANTDTKGRPCLAWNAPAVLQKPYNAHRPDAISLGLGKHNYCRNPDNQKRPWCYVQIGLRQFVQECMVHDCHHHHHH
notes: also called 104
